Legend:
[1] = biological target: biotinylated Ag85A (Rv3804c) polypeptide (M. tuberculosis H37Rv)
[2] = biological target: biotinylated Ag85B (Rv1886c) polypeptide (M. tuberculosis H37Rv) (UniProt A5U3Q3)
[3] = biological target: biotinylated MPT63 (Rv1926c) polypeptide (M. tuberculosis H37Rv)
[4] = biological target: biotinylated MPT64 (Rv1980c) polypeptide (M. tuberculosis H37Rv)
[5] = biological target: biotinylated MTC28 (Rv0040c) polypeptide (M. tuberculosis H37Rv)

Sequence of streptavidin (P22629 37-163 limits assumed): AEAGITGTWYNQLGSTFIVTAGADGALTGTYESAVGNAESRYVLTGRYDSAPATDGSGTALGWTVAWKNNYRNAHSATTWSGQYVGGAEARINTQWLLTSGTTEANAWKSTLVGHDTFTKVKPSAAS

streptavidin (from UniProt P22629 37-163)
Extent of biotinylation (share of protein adsorbed on streptavidin beads) [1]: 99.9% | Fold reduction in protein reactivity after adsorption [1]: 4000 fold | Extent of biotinylation (share of protein adsorbed on streptavidin beads) [2]: 99.9% | Fold reduction in protein reactivity after adsorption [2]: 1000 fold | Extent of biotinylation (share of protein adsorbed on streptavidin beads) [3]: 99.9% | Fold reduction in protein reactivity after adsorption [3]: 1000 fold | Extent of biotinylation (share of protein adsorbed on streptavidin beads) [4]: 99.8% | Fold reduction in protein reactivity after adsorption [4]: 500 fold | Extent of biotinylation (share of protein adsorbed on streptavidin beads) [5]: 99.8% | Fold reduction in protein reactivity after adsorption [5]: 500 fold
